The record followed here is patent US20110123542A1.

The experiment concerns the target T1, CCR6 receptor on human cancer cell lines (PC3, HL60, HT-29, NB4) (human) (UniProt P51684).
T1 sequence (looked up): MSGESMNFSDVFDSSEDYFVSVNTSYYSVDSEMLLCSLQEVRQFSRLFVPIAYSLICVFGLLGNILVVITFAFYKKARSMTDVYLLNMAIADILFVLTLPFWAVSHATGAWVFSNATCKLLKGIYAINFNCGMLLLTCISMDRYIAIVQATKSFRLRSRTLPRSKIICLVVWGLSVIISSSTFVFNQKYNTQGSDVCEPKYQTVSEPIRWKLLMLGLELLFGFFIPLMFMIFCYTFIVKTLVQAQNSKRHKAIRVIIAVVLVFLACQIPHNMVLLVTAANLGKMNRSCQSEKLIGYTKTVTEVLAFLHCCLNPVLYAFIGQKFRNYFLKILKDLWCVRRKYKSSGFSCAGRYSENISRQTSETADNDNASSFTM
Put plainly: cell-based or functional assay.

“CCL20 (PeproTech EC, London, UK) (from UniProt P78556 27-96) (ligand)”: the BrdU incorporation of PC3 cells, CCL20 5 and 50 ng/ml turned out to be 1.76 fold; the adhesion of HL60 cells to collagen I, CCL20 250 ng/ml was 1.6 fold; the adhesion of HL60 cells to fibronectin, CCL20 500 ng/ml was 2 fold; the adhesion of PC3 cells to collagen I, CCL20 50 ng/ml is 2.2 fold. Moreover, the adhesion of PC3 cells to collagen I, CCL20 500 ng/ml is 2.09 fold and the adhesion of PC3 cells to fibronectin, CCL20 500 ng/ml was 1.45 fold.
